Results reported in paper PMC9896449.

How the values were obtained:
[1] = target: BiShAb0201 (ShAb02 VNAR - (GGGGS)5 - ShAb01 VNAR - human IgG1 Fc) (nurse shark (Ginglymostoma cirratum)); assay: BLI
[2] = target: ShAb01H02K (knob-in-hole heterodimer of ShAb01-Fc and ShAb02-Fc) (nurse shark (Ginglymostoma cirratum)); assay: BLI

Substance	Kd [1]	koff [1]	kon [1]	Kd [2]	koff [2]	kon [2]
SARS-CoV-2 RBD B.1.1.7, Alpha (N501Y) (from UniProt P0DTC2 331-527) (domain or fragment)	1.8 nM	0.00037 s⁻¹	207000 M⁻¹ s⁻¹	1.5 nM	0.000513 s⁻¹	341000 M⁻¹ s⁻¹
SARS-CoV-2 RBD B.1.351, Beta (K417N, E484K, N501Y) (from UniProt P0DTC2 331-527) (domain or fragment)	2.1 nM	0.000436 s⁻¹	206000 M⁻¹ s⁻¹	1.8 nM	0.000538 s⁻¹	294000 M⁻¹ s⁻¹
SARS-CoV-2 RBD B.1.427/429, Epsilon (L452R) (from UniProt P0DTC2 331-527) (domain or fragment)	1.2 nM	0.000133 s⁻¹	109000 M⁻¹ s⁻¹	0.08 nM	1.21e-05 s⁻¹	156000 M⁻¹ s⁻¹
SARS-CoV-2 RBD B.1.525, Eta, Iota (E484K) (from UniProt P0DTC2 331-527) (domain or fragment)	2 nM	0.000415 s⁻¹	210000 M⁻¹ s⁻¹	1.6 nM	0.000511 s⁻¹	310000 M⁻¹ s⁻¹
SARS-CoV-2 RBD B.1.617, Kappa (L452R, E484Q) (from UniProt P0DTC2 331-527) (domain or fragment)	4.4 nM	0.000238 s⁻¹	53600 M⁻¹ s⁻¹	2.2 nM	0.000326 s⁻¹	151000 M⁻¹ s⁻¹
SARS-CoV-2 RBD B.1.617.2, Delta (L452R, T478K) (from UniProt P0DTC2 331-527) (domain or fragment)	0.72 nM	4.1e-05 s⁻¹	57000 M⁻¹ s⁻¹	< 0.001 nM	< 1e-07 s⁻¹	90000 M⁻¹ s⁻¹
SARS-CoV-2 RBD E484K, N501Y (from UniProt P0DTC2 331-527) (domain or fragment)	2.3 nM	0.000412 s⁻¹	177000 M⁻¹ s⁻¹	1.9 nM	0.000512 s⁻¹	277000 M⁻¹ s⁻¹
SARS-CoV-2 RBD K417N (from UniProt P0DTC2 331-527) (domain or fragment)	1.7 nM	0.000352 s⁻¹	211000 M⁻¹ s⁻¹	1.3 nM	0.000457 s⁻¹	353000 M⁻¹ s⁻¹
SARS-CoV-2 RBD P.1, Gamma (K417T, E484K, N501Y) (from UniProt P0DTC2 331-527) (domain or fragment)	6.5 nM	0.000508 s⁻¹	78000 M⁻¹ s⁻¹	4.2 nM	0.000305 s⁻¹	73500 M⁻¹ s⁻¹
